Where no end group is shown, it is not given here.
Experiments:
receptor NKG2D [1] = target: T1, receptor NKG2D (UniProt P26718 80-216); assay: isothermal microcalorimetry; NKG2D concentration entered as monomeric binding sites
T1 sequence (looked up): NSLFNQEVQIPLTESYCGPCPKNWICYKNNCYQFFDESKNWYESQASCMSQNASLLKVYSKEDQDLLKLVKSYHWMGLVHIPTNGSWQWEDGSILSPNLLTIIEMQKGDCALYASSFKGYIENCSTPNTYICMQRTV

receptor NKG2D [2] = target: T1, receptor NKG2D; assay: isothermal microcalorimetry; SVH1C (100 µM) titrated into NKG2D (11 µM monomer)
[3] = target: T2, lectin MAA from Maackia amurensis (Maackia amurensis); assay: solid-phase competition; fetuin at one-third, equal or 5-fold the molar concentration of peptide; MAA
T2 construct: Plant lectin; peroxidase-conjugated in the solid-phase assays
T2 sequence (P0DKL3 30-278): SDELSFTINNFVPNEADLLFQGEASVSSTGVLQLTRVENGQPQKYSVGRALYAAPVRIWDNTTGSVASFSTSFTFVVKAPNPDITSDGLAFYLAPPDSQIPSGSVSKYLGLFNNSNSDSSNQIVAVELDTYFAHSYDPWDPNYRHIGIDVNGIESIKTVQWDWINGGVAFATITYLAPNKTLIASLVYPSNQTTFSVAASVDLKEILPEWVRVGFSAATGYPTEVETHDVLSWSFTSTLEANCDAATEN

B1: SVH1C ([NPSHPLSGGGGS]4K3-NH2) (peptide)
peptide: NPSHPLSGGGGS
chain: Lys-Lys-Lys-NH2
modifications: also: four copies of chain 1 bound by their C-termini to the four amino groups of the branched tri-lysine core
notes: also called quadravalent SVH1C; lead peptide
stoichiometry, n (receptor NKG2D [1]): 0.71
Ka (receptor NKG2D [2]): 1.7e+06 M⁻¹
Kd (receptor NKG2D [2]): 600 nM

B2: fetuin (other, UniProt P12763 19-359, looked up)
chain: IPLDPVAGYKEPACDDPDTEQAALAAVDYINKHLPRGYKHTLNQIDSVKVWPRRPTGEVYDIEIDTLETTCHVLDPTPLANCSVRQQTQHAVEGDCDIHVLKQDGQFSVLFTKCDSSPDSAEDVRKLCPDCPLLAPLNDSRVVHAVEVALATFNAESNGSYLQLVEISRAQFVPLPVSVSVEFAVAATDCIAKEVVDPTKCNLLAEKQYGFCKGSVIQKALGGEDVRVTCTLFQTQPVIPQPQPDGAEAEAPSAVPDAAGPTPSAAGPPVASVVVGPSVVAVPLPLHRAHYDLRHTFSGVASVESSSGEAFHVGKTPIVGQPSIPGGPVRLCPGRIRYFKI
modifications: 12 to 15 oligosaccharides terminating predominantly as Neu5Ac-Gal on three N-linked and three O-linked glycans
notes: acts through its sialylated glycans; also called glycoprotein fetuin; sialylated protein, fetuin
percent inhibition of SVH1C binding at a 5-fold molar excess of fetuin [3]: 90%

From patent US20150299255A1 (SUSAVION BIOSCIENCES, published 2015)
